{"source": "the RNAGym collection of RNA variant scans (doi:10.1093/nar/gkz1192)", "parents": {"B1": {"name": "CPEB3 Ribozyme (parent)", "chain": "UAACAGGGGGCCACAGCAGAAGCGUUCACGUCGCAGCCCCUGUCAGAUUCUGGUGAAUCUGCGAAUUCUGCUGUAUAUCUC"}}, "data": [{"variants_of": "B1", "assay": "self-cleavage, relative activity (ratio to wild type); higher = more cleavage; in vitro, sequencing", "procedure,_shortened": "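For each CPEB3 ribozyme variant, relative activity is its cleaved/total read fraction divided by the unmutated ribozyme's. Barcoded error-prone PCR libraries were transcribed by T7 RNA polymerase (5 hours, 37°C) and held in DNase I for 15 min before an EDTA stop, with cleavage occurring throughout. Template-switching reverse transcription and Illumina sequencing were used to read the RNAs. A 5-read minimum applied, and results are the mean of three batches.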", "values": [{"variant": "U66C G70A", "self-cleavage": 0.35}, {"variant": "U66C G70U", "self-cleavage": 0.22}, {"variant": "U66C G73A", "self-cleavage": 0.81}, {"variant": "U66C G73C", "self-cleavage": 0.58}, {"variant": "U66C G73U", "self-cleavage": 1.02}, {"variant": "U66C U67A", "self-cleavage": 0.25}, {"variant": "U66C U67C", "self-cleavage": 0.32}, {"variant": "U66C U67G", "self-cleavage": 0.32}, {"variant": "U66C U69A", "self-cleavage": 0.3}, {"variant": "U66C U69C", "self-cleavage": 0.34}, {"variant": "U66C U69G", "self-cleavage": 0.31}, {"variant": "U66C U72A", "self-cleavage": 0.39}, {"variant": "U66C U72C", "self-cleavage": 0.45}, {"variant": "U66C U72G", "self-cleavage": 0.46}, {"variant": "U66C U74A", "self-cleavage": 0.62}, {"variant": "U66C U74C", "self-cleavage": 0.66}, {"variant": "U66C U76A", "self-cleavage": 0.41}, {"variant": "U66C U76C", "self-cleavage": 0.43}, {"variant": "U66C U76G", "self-cleavage": 0.39}, {"variant": "U66C U78A", "self-cleavage": 0.43}, {"variant": "U66C U78C", "self-cleavage": 0.36}, {"variant": "U66C U80A", "self-cleavage": 0.48}, {"variant": "U66C U80C", "self-cleavage": 0.45}, {"variant": "U66C U80G", "self-cleavage": 0.49}, {"variant": "U66G", "self-cleavage": 0.48}, {"variant": "U66G A75U", "self-cleavage": 0.67}, {"variant": "U66G C68G", "self-cleavage": 0.29}, {"variant": "U66G C68U", "self-cleavage": 0.38}, {"variant": "U66G G70A", "self-cleavage": 0.27}, {"variant": "U66G U69A", "self-cleavage": 0.47}, {"variant": "U66G U69C", "self-cleavage": 0.31}, {"variant": "U66G U72A", "self-cleavage": 0.24}, {"variant": "U66G U72C", "self-cleavage": 0.61}, {"variant": "U66G U78C", "self-cleavage": 0.41}, {"variant": "U66G U80A", "self-cleavage": 0.67}, {"variant": "U66G U80C", "self-cleavage": 0.54}, {"variant": "U67A", "self-cleavage": 0.54}, {"variant": "U67A A75G", "self-cleavage": 0.54}, {"variant": "U67A A75U", "self-cleavage": 0.65}, {"variant": "U67A A77G", "self-cleavage": 0.57}, {"variant": "U67A A77U", "self-cleavage": 0.39}, {"variant": "U67A C68U", "self-cleavage": 0.33}, {"variant": "U67A C71A", "self-cleavage": 0.3}, {"variant": "U67A C71G", "self-cleavage": 0.33}, {"variant": "U67A C71U", "self-cleavage": 0.11}, {"variant": "U67A C79A", "self-cleavage": 0.82}, {"variant": "U67A C81G", "self-cleavage": 0.92}, {"variant": "U67A G70A", "self-cleavage": 0.45}, {"variant": "U67A G70C", "self-cleavage": 0.23}, {"variant": "U67A G73A", "self-cleavage": 1.05}, {"variant": "U67A G73C", "self-cleavage": 1.07}, {"variant": "U67A U69A", "self-cleavage": 0.3}, {"variant": "U67A U69C", "self-cleavage": 0.4}, {"variant": "U67A U72A", "self-cleavage": 0.38}, {"variant": "U67A U72C", "self-cleavage": 0.49}, {"variant": "U67A U72G", "self-cleavage": 0.35}, {"variant": "U67A U74A", "self-cleavage": 0.8}, {"variant": "U67A U74C", "self-cleavage": 0.92}, {"variant": "U67A U74G", "self-cleavage": 0.81}, {"variant": "U67A U76A", "self-cleavage": 0.68}, {"variant": "U67A U76C", "self-cleavage": 0.58}, {"variant": "U67A U78A", "self-cleavage": 0.64}, {"variant": "U67A U78C", "self-cleavage": 0.52}, {"variant": "U67A U80A", "self-cleavage": 0.58}, {"variant": "U67A U80C", "self-cleavage": 0.58}, {"variant": "U67C", "self-cleavage": 0.32}, {"variant": "U67C A75G", "self-cleavage": 0.35}, {"variant": "U67C A75U", "self-cleavage": 0.26}, {"variant": "U67C A77G", "self-cleavage": 0.3}, {"variant": "U67C A77U", "self-cleavage": 0.34}, {"variant": "U67C C68A", "self-cleavage": 0.38}, {"variant": "U67C C68U", "self-cleavage": 0.46}, {"variant": "U67C C71G", "self-cleavage": 0.21}, {"variant": "U67C C79A", "self-cleavage": 0.49}, {"variant": "U67C C79U", "self-cleavage": 0.32}, {"variant": "U67C C81G", "self-cleavage": 0.16}, {"variant": "U67C C81U", "self-cleavage": 0.37}, {"variant": "U67C G70A", "self-cleavage": 0.18}, {"variant": "U67C G70C", "self-cleavage": 0.39}, {"variant": "U67C G70U", "self-cleavage": 0.26}, {"variant": "U67C G73A", "self-cleavage": 0.34}, {"variant": "U67C G73C", "self-cleavage": 0.46}, {"variant": "U67C G73U", "self-cleavage": 0.46}, {"variant": "U67C U69A", "self-cleavage": 0.33}, {"variant": "U67C U69C", "self-cleavage": 0.32}, {"variant": "U67C U69G", "self-cleavage": 0.45}, {"variant": "U67C U72A", "self-cleavage": 0.33}, {"variant": "U67C U72C", "self-cleavage": 0.29}, {"variant": "U67C U72G", "self-cleavage": 0.22}, {"variant": "U67C U74A", "self-cleavage": 0.31}, {"variant": "U67C U74C", "self-cleavage": 0.37}, {"variant": "U67C U76A", "self-cleavage": 0.3}, {"variant": "U67C U76C", "self-cleavage": 0.3}, {"variant": "U67C U78A", "self-cleavage": 0.29}, {"variant": "U67C U78C", "self-cleavage": 0.35}, {"variant": "U67C U78G", "self-cleavage": 0.12}, {"variant": "U67C U80A", "self-cleavage": 0.32}, {"variant": "U67C U80C", "self-cleavage": 0.4}, {"variant": "U67G", "self-cleavage": 0.4}, {"variant": "U67G A75U", "self-cleavage": 0.6}, {"variant": "U67G A77C", "self-cleavage": 0.32}, {"variant": "U67G C68U", "self-cleavage": 0.44}, {"variant": "U67G C79U", "self-cleavage": 0.51}, {"variant": "U67G G70C", "self-cleavage": 0.21}, {"variant": "U67G U69C", "self-cleavage": 0.5}, {"variant": "U67G U72A", "self-cleavage": 0.36}, {"variant": "U67G U72C", "self-cleavage": 0.14}, {"variant": "U67G U74C", "self-cleavage": 0.6}, {"variant": "U67G U78A", "self-cleavage": 0.67}, {"variant": "U67G U78C", "self-cleavage": 0.3}, {"variant": "U67G U80A", "self-cleavage": 0.4}, {"variant": "U67G U80C", "self-cleavage": 0.34}, {"variant": "C68A", "self-cleavage": 0.41}, {"variant": "C68A A75U", "self-cleavage": 0.28}, {"variant": "C68A C81A", "self-cleavage": 0.6}, {"variant": "C68A G70U", "self-cleavage": 0.36}, {"variant": "C68A G73U", "self-cleavage": 0.85}, {"variant": "C68A U69A", "self-cleavage": 0.25}, {"variant": "C68A U69C", "self-cleavage": 0.17}, {"variant": "C68A U69G", "self-cleavage": 0.42}, {"variant": "C68A U72A", "self-cleavage": 0.4}, {"variant": "C68A U72C", "self-cleavage": 0.2}, {"variant": "C68A U74A", "self-cleavage": 0.52}, {"variant": "C68A U74C", "self-cleavage": 0.86}, {"variant": "C68A U74G", "self-cleavage": 0.68}, {"variant": "C68A U76C", "self-cleavage": 0.54}, {"variant": "C68A U78C", "self-cleavage": 0.5}, {"variant": "C68A U80C", "self-cleavage": 0.53}, {"variant": "C68G", "self-cleavage": 0.47}, {"variant": "C68G A77G", "self-cleavage": 0.61}, {"variant": "C68G U69C", "self-cleavage": 0.27}, {"variant": "C68G U72C", "self-cleavage": 0.48}, {"variant": "C68G U74A", "self-cleavage": 0.43}, {"variant": "C68G U78C", "self-cleavage": 0.69}, {"variant": "C68U", "self-cleavage": 1.06}, {"variant": "C68U A75G", "self-cleavage": 0.67}, {"variant": "C68U A75U", "self-cleavage": 1.02}, {"variant": "C68U U69A", "self-cleavage": 0.22}, {"variant": "C68U U69C", "self-cleavage": 0.43}, {"variant": "C68U U69G", "self-cleavage": 0.39}, {"variant": "C68U U72A", "self-cleavage": 0.35}, {"variant": "C68U U72C", "self-cleavage": 0.93}, {"variant": "C68U U72G", "self-cleavage": 0.95}, {"variant": "C68U U74C", "self-cleavage": 1.19}, {"variant": "C68U U78A", "self-cleavage": 1.01}, {"variant": "C68U U78C", "self-cleavage": 1.03}, {"variant": "C68U U80C", "self-cleavage": 1.08}, {"variant": "U69A", "self-cleavage": 0.63}, {"variant": "U69A A75C", "self-cleavage": 0.55}, {"variant": "U69A A75G", "self-cleavage": 0.53}, {"variant": "U69A A75U", "self-cleavage": 0.66}, {"variant": "U69A A77G", "self-cleavage": 0.72}, {"variant": "U69A A77U", "self-cleavage": 0.75}, {"variant": "U69A C71G", "self-cleavage": 0.22}, {"variant": "U69A C71U", "self-cleavage": 0.33}, {"variant": "U69A C81A", "self-cleavage": 0.98}, {"variant": "U69A C81U", "self-cleavage": 0.84}, {"variant": "U69A G70A", "self-cleavage": 0.24}, {"variant": "U69A G73A", "self-cleavage": 1.16}, {"variant": "U69A G73C", "self-cleavage": 0.65}, {"variant": "U69A G73U", "self-cleavage": 0.93}, {"variant": "U69A U72A", "self-cleavage": 0.33}, {"variant": "U69A U72C", "self-cleavage": 0.5}, {"variant": "U69A U72G", "self-cleavage": 0.49}, {"variant": "U69A U74A", "self-cleavage": 0.55}, {"variant": "U69A U74C", "self-cleavage": 0.96}, {"variant": "U69A U76A", "self-cleavage": 0.84}]}]}
